This is an account of results in US20130336947.

For data set [1], the system named is ZF11xHunt-Kox-1 (Artificial). In words: cell_activity.
The subject of data set [2] is ZF6xHunt-Kox-1 (Artificial). The data set can be described thus: cell_activity. The conditions noted are these: htt mRNA (up to 2.5-fold); protein up to 2-fold; STHdh Q111/Q111, 20 days.

Sequence of ZF11xHunt-Kox-1 (Artificial) (chain, as listed by the source): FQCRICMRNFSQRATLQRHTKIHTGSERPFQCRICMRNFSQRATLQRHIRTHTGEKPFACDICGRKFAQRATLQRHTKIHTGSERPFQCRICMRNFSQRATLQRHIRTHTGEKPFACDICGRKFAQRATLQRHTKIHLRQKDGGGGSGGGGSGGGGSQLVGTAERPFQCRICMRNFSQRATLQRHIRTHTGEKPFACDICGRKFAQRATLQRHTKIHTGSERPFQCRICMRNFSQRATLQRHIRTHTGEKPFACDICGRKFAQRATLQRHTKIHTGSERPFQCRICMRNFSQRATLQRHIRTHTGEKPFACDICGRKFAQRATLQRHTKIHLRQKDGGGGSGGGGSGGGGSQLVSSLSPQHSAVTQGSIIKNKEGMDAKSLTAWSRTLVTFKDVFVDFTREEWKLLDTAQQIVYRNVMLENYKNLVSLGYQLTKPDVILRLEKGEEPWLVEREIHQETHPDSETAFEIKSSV
Sequence of ZF6xHunt-Kox-1 (Artificial) (chain, as listed by the source): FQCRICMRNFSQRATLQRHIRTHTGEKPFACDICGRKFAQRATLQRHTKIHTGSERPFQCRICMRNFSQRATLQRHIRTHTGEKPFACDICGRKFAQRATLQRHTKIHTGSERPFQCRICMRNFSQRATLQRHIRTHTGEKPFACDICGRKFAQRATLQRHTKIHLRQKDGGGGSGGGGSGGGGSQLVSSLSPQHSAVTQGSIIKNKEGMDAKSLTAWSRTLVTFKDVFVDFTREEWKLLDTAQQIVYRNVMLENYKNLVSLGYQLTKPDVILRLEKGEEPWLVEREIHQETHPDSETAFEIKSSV

R6/2 mutant HTT transgene: the activity (% mRNA reduction) in data set [1] (AAV2/1 striatal delivery, R6/2 mice, week 6, average) was over 45.

In turn, STHdh Q111 mutant htt locus registered an activity (% mRNA reduction) in data set [1] (protein reduced 95%, STHdh Q111/Q111, 20 days) of 80. The activity (fold repression) in data set [2] was under 2.5.
